Test results: patent publication US20030228258A1

Assays:
[1] = target: T cell receptors of the mouse p60217-225-specific CD8+ T cell line (mouse); assay: flow cytometry, tetramer staining of CD8+ T cell line
[2] = target: T cell receptors of the mouse LLO91-99-specific CD8+ T cell line (mouse); assay: as above
[3] = target: T cell receptors of the mouse LLO91-99-specific CD8+ T cell line (mouse); assay: flow cytometry, tetramer staining at 37 C, 1 h incubation
[4] = target: T cell receptors of the mouse LLO91-99-specific CD8+ T cell line (mouse); assay: flow cytometry, tetramer staining at 37 C, 8 h incubation
[5] = target: T cell receptors of the mouse LLO91-99-specific CD8+ T cell line (mouse); assay: flow cytometry, tetramer staining at 37 C, column headed 2 h
[6] = target: T cell receptors of the mouse LLO91-99-specific CD8+ T cell line (mouse); assay: cell-based or functional assay
[7] = target: T cell receptors of the mouse p60217-225-specific CD8+ T cell line (mouse); assay: cell-based or functional assay
[8] = target: T cell receptors of the human Flu-specific (Flu58-66) CD8+ T cell line (human); assay: flow cytometry, tetramer staining of CD8+ T cell line
[9] = target: T cell receptors of the human Flu-specific (Flu58-66) CD8+ T cell line (human); assay: flow cytometry, tetramer staining at 37 C, 1 h incubation
[10] = target: T cell receptors of the human Flu-specific (Flu58-66) CD8+ T cell line (human); assay: flow cytometry, tetramer staining at 37 C, 8 h incubation
[11] = target: T cell receptors of the human Flu-specific (Flu58-66) CD8+ T cell line (human); assay: flow cytometry, tetramer staining at 37 C, 24 h incubation
[12] = target: T cell receptors of the human Flu-specific (Flu58-66) CD8+ T cell line (human); assay: flow cytometry, tetramer staining at 37 C, column headed 2 h

p60217-225/H-2K^d tetramer (from UniProt P61769 21-119; P22629 37-163; P01902 22-305) (peptide-MHC)
% of CD8+ T cells stained positive for the tetramer [1]: 70%

LLO91-99/H-2K^d tetramer (fluorescent, non-radiolabeled) (from UniProt P61769 21-119; P22629 37-163; P01902 22-305) (peptide-MHC)
% of CD8+ T cells that bound the tetramer [2]: 76% | % of CD8+ T cells stained with the tetramer [1]: 1.3% | % tetramer binding of CD8+ T cells [3]: 76% | % tetramer binding of CD8+ T cells [4]: 63% | % tetramer binding of CD8+ T cells [5]: 75%

225Ac-labeled LLO91 tetramer (225Ac-DOTA-biotin, LLO91/H-2K^d monomers, streptavidin) (from UniProt P61769 21-119; P22629 37-163; P01902 22-305) (peptide-MHC)
IFN-γ ELISPOT, spots, non-treated vs treated with 10 nCi/ml for 72 hr (specific IFN-γ spots (treated)) [6]: 83 | cell killing (ED50) [6]: 4 to 8 nCi/ml | IFN-γ ELISPOT, spots, non-treated vs treated with 10 nCi/ml for 72 hr (specific IFN-γ spots (treated)) [7]: 105 | cell killing (ED50) [7]: 100 to 200 nCi/ml

LMP1/HLA-A2 tetramer (PE- or FITC-streptavidin, non-radiolabeled) (from UniProt P61769 21-119; P22629 37-163) (peptide-MHC)
% of CD8+ T cells stained with the tetramer [8]: 1% | % tetramer binding of CD8+ T cells [9]: 0.9% | % tetramer binding of CD8+ T cells [10]: 1.5% | % tetramer binding of CD8+ T cells [11]: 1% | % tetramer binding of CD8+ T cells [12]: 1.2%
